According to patent publication US20210371529A1 (Innovent, published 2021):

T1: mouse LAG-3 overexpressed on CHO cells (mouse, UniProt Q61790 24-521)
T1 construct: whole, on cells; also called CHO-mLAG-3 cells; mouse LAG-3 on the cell surface
T1 sequence (looked up): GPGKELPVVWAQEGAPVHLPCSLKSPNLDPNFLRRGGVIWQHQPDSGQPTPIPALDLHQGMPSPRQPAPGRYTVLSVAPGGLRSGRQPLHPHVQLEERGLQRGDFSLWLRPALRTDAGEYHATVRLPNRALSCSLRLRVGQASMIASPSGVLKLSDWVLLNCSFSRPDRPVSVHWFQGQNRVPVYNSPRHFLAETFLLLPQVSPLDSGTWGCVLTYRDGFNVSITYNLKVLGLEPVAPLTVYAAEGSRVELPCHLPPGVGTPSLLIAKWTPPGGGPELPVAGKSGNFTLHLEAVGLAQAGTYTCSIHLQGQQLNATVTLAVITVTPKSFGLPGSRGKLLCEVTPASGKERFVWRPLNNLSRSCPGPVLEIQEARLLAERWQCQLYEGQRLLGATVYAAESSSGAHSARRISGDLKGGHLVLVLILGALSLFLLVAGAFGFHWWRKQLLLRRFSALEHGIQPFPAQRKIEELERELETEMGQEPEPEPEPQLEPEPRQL

T2: human LAG-3 overexpressed on HEK293 cells (human, UniProt P18627 23-525)
T2 construct: whole, on cells; also called 293-hLAG-3 cells; hLAG-3 on the cell surface
T2 sequence (looked up): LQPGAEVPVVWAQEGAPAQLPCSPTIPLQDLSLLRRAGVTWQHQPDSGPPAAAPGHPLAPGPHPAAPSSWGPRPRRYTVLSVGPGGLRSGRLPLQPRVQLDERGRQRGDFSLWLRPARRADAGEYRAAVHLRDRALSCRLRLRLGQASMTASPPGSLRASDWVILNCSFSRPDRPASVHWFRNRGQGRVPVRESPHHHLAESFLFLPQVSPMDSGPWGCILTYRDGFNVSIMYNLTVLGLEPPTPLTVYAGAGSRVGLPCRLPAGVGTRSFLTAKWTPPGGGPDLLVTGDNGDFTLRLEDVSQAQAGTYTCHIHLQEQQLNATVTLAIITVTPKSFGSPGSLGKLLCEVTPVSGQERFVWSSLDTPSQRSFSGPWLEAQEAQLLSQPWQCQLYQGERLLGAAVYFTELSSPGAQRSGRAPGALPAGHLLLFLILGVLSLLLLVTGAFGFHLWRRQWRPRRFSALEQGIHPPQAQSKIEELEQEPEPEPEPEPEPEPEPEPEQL

T3: human LAG-3-His (human, UniProt P18627 23-450)
T3 construct: Bought antigen (ArcoBiosystems), 100 nM in solution in the ForteBio assay; also called human LAG-3 antigen (ArcoBiosystems); hLAG-3; not shown: His tag
T3 sequence (looked up): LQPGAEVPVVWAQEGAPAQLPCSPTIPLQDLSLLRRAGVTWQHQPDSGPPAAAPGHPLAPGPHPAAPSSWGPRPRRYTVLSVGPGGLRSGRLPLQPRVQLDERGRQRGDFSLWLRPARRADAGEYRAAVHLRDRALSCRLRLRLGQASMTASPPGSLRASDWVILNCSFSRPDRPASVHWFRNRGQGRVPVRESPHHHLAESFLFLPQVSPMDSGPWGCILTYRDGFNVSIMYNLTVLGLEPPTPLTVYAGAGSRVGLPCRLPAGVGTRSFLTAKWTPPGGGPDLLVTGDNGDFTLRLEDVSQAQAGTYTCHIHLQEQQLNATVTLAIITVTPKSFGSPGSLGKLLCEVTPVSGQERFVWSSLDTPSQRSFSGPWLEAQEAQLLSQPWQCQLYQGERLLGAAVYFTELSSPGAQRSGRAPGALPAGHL


Tests used:
[1] = target: T1, mouse LAG-3 overexpressed on CHO cells; test: flow cytometry (MFI) on CHO cells overexpressing mouse LAG-3; fit value from the EC50 table on the sheet for a flat curve (see non_binding); table has no unit of its own (concentration axis in nM)
[2] = target: T2, human LAG-3 overexpressed on HEK293 …; test: flow cytometry on 293-hLAG-3 cells, MFI curve
Description: The binding of the 4 exemplary antibodies of the invention described above to human LAG-3 was measured in a flow cytometry-based assay. 293 cells (293-hLAG-3 cells) over-expressing human LAG-3 were generated by transfecting human embryonic kidney 293 cells (Invitrogen) with pCHO1.0 vectors (Invitrogen) carrying human LAG-3 cDNA (Sino Biological) cloned into multiple cloning sites (MCSs). 293-hLAG-3 cells (0.2×10⁶ cells) were mixed with different concentrations of antibodies (ADI-26789, ADI-26869 and reference 25F7) prepared as described above (the antibodies were serially three-fold diluted from a maximum concentration of 500 nM in PBS containing 0.1% bovine serum albumin (BSA) until the 8th concentration). The cells were incubated on ice for 30 min. The cells were then washed at least twice prior to addition of a secondary antibody (a PE-labeled goat anti-human IgG antibody, Southern Biotech, final concentration […]) diluted in 1:100, and incubated on ice (protected from light) for 30 minutes. The cells were washed at least twice and analyzed by flow cytometry. The flow cytometry assay was performed on an Accuri C6 system (BD Biosciences), and a concentration-dependent curve was fitted with GraphPad according to the mean fluorescence intensity (MFI).

human LAG-3-His [3] = target: T3, human LAG-3-His; test: BLI (ForteBio), antibody on AHQ tip, human LAG-3-His 100 nM in solution, univalent
Description: (§1) The purified antibody obtained as described above was loaded on-line onto an AHQ sensor (ForteBio) for ForteBio affinity assay. The sensor with the loaded antibody was then exposed to 100 nM of a human LAG-3 antigen (ArcoBiosystems) for 5 minutes before transferring the sensor to the assay buffer for dissociation for 5 minutes for dissociation rate measurement. Kinetic analysis was performed using a 1:1 binding model.

human LAG-3-His [4] = target: T3, human LAG-3-His; test: BLI (ForteBio), antibody on AHQ tip, human LAG-3-His 100 nM in solution
Description: as §1

human PD-L1 = target: T4, human PD-L1 (human, UniProt Q9NZQ7 19-238); test: BLI (ForteBio), antibody loaded on sensor, human PD-L1 in solution
T4 construct: Bought antigen; also called human PD-L1 antigen (Acrobiosystems)
T4 sequence (Q9NZQ7 19-238 limits assumed): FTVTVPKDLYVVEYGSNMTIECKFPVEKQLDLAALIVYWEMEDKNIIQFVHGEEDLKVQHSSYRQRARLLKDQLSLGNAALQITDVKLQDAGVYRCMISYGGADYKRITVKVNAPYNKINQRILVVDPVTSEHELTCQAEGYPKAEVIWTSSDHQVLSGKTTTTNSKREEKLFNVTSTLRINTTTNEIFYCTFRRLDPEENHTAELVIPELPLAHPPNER
Description: The equilibrium dissociation constant (KD) for binding of the anti-PD-L1 antibody (HZ3266-IgG1N297A) to human PD-L1 was determined by biological optical interferometry (ForteBio). A ForteBio affinity assay of prior art was performed (Estep, P., et al, High throughput solution based measurement of antibody-antigen affinity and epitope binning. MAbs, 2013.5(2):270-8).
SD buffer, antibodies, and antigens (including human PD-L1, all purchased from Acrobiosystems) each of 100 μL were added to 96-well black polystyrene half area microplates (Greiner, 675076). The sensors were arranged according to the positions of the samples. The instrument settings were as follows: the operation procedures were Baseline, Loading ˜1 nm, Baseline, Association, and Dissociation. The run time of each procedure was dependent on the rates of association and dissociation. The rotation speed was 400 rpm, and the temperature was 30° C. The KD values were analyzed by ForteBio analysis software.

Binder | EC50 [1] [nM] | EC50 [2] [nM] | Kd (human LAG-3-His [3]) [nM] | koff (human LAG-3-His [4]) [s⁻¹] | kon (human LAG-3-His [4]) [M⁻¹ s⁻¹] | Kd (human PD-L1) [nM]
BAP050 (antibody, V domains shown) VH: QIQLVQSGPELKKPGETVKISCKASGFTLTNYGMNWVRQTPGKGLKWMGWINTDTGEPTYADDFKGRFAFSLETSASTASLQINNLKNADTATYFCARNPPYYYGTNNAEAMDYWGQGTAVTVSS VL: DIQMTQTTSSLSASLGDRVTISCSSSQDISNYLNWYQQKPDGTVKVLIYYTSTLHLGVPSRFSGSGSGTDYSLTISNLELEDIATYYCQQYYNLPWTFGGGTKLEIK | ~0.7 | 1.41 | 0.844 | 0.0002 | 237000 | 
HZ3266-IgG1N297A (antibody, V domains shown, also called anti-PD-L1 antibody (HZ3266-IgG1N297A)) VH: EVQLVQSGAEVKKPGATVKISCTASGFNIEDTYIHWVQQAPGQGLEWIGRIDPANDDTKYAPKFQGRATITADTSTDTAYMELSSLRSEDTAVYYCGRGLGRWFAYWGQGTLVTVSS VL: GIVMTQSPDSLAVSLGERATINCKASQDVINAVAWYQQKPGQSPKLLIYSASNRYTGVPDRFSGSGSGTDFTLTISSLQAEDLAVYYCQQHYSPPLTFGGGTKVEIKR |  |  |  |  |  | 0.724

Other lines, results leading:

EC50 [1] [nM] | EC50 [2] [nM] | Kd (human LAG-3-His [3]) [nM] | koff (human LAG-3-His [4]) [s⁻¹] | kon (human LAG-3-His [4]) [M⁻¹ s⁻¹] | Kd (human PD-L1) [nM] | Binder
0.857 |  |  |  |  |  | 25F7 (antibody, V domains shown) VH: QVQLQQWGAGLLKPSETLSLTCAVYGGSFSDYYWNWIRQPPGKGLEWIGEINHNGNTNSNPSLKSRVTLSLDTSKNQFSLKLRSVTAADTAVYYCAFGYSDYEYNWFDPWGQGTLVTVSS VL: EIVLTQSPATLSLSPGERATLSCRASQSISSYLAWYQQKPGQAPRLLIYDASNRATGIPARFSGSGSGTDFTLTISSLEPEDFAVYYCQQRSNWPLTFGQGTNLEIK
 | 2.14 | 18.3 | 0.00389 | 212000 |  | ADI-26789 (antibody, human IgG4 S228P, kappa, F234A L235A, V domains shown, Fully human antibody from yeast display; IgG4 heavy chain constant region with kappa light chain; also called anti-human LAG-3 antibody ADI-26789; parent antibody) VH: EVQLVESGGGLVQPGRSLRLSCAASGFTFDDYAMHWVRQAPGKGLEWVSGISWNSGDIGYADSVKGRFTISRDNAKNSLYLQMNSLRAEDTALYYCAKGGYDGSYYGMDVWGQGTTVTVSS VL: not shown
 | 2.91 | 7.88 | 0.00385 | 488000 |  | ADI-26869 (antibody, human IgG4 S228P, kappa, F234A L235A, V domains shown, Fully human antibody from yeast display; IgG4 heavy chain constant region with kappa light chain; expressed in HEK293 cells; also called anti-human LAG-3 antibody ADI-26869; parent antibody) VH: QLQLQESGPGLVKPSETLSLTCTVSGGSISSSDYYWGWIRQPPGKGLEWIGSIYYSGSTYYNPSLKSRVTISVDTSKNQFSLKLSSVTAADTAVYYCARVRTWDAAFDIWGQGTMVTVSS VL: DIQMTQSPSSLSASVGDRVTITCQASQDISNYLNWYQQKPGKAPKLLIYDASNLETGVPSRFSGSGSGTDFTFTISSLQPEDIATYYCQQVHALPPWTFGGGTKVEIKR
